Drawing on paper PMC4837482, “The complex binding mode of the peptide hormone H2 relaxin to its receptor RXFP1” (Nature Communications, 2016), this text covers Kd and H2 relaxin-induced cAMP response (pCRE β-galactosidase reporter, HEK293T), pEC50 for two molecules.

Assay [1] concerns the target RXFP1 A55L, full length (human). Briefly: europium-labelled ligand saturation binding on cells (time-resolved fluorescence); HEK293T cells transiently transfected with receptor, 96-well plates; increasing Eu-H2 relaxin (maximum 15 nM) with or without 1 μM unlabelled H2 relaxin, 1 h, room temperature; 20 mM HEPES pH 7.5, […] CaCl2, 50 mM NaCl, 0.01% NaN3, 1% BSA; one-site fit.

The target in assay [2] is RXFP1 C40A^ins, full length (human). The description is as above.
Assay [3] addresses T1, RXFP1 D51A, full length (human).
T1 sequence (Q9HBX9 1-757 with D51A, looked up): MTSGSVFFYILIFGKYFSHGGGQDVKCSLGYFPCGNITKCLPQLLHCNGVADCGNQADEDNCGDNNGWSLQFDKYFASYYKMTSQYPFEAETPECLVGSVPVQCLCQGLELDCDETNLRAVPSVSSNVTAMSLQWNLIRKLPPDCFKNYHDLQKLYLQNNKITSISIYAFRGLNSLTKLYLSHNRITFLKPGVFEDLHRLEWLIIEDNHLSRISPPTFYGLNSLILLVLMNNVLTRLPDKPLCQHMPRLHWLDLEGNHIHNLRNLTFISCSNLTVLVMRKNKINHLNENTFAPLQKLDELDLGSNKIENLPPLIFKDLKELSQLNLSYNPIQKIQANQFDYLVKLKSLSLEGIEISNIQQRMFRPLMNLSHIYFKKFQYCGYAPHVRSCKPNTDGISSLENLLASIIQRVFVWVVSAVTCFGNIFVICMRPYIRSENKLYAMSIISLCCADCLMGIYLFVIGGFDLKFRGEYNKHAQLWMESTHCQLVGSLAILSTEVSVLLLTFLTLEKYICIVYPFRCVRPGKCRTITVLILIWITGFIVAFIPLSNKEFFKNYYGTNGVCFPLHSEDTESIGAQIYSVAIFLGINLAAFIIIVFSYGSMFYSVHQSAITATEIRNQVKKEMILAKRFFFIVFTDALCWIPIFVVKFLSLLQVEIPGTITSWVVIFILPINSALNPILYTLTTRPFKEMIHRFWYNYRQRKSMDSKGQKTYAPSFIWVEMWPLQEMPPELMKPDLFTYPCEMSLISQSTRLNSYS
Described as above.

For assay [4], the target named is RXFP1 N43A, full length (human). Described as above.
The target in assay [5] is RXFP1 Q49A/F50A, full length (human). The assay is described as above.
Assay [6] deals with RXFP1 W46A, full length (human). Described as above.
The target of assay [7] is RXFP1 A55S, full length (human).
Assay [8] deals with RXFP1 D42A, full length (human).
Assay [9] has as its target T1, RXFP1 D51A, full length (human).
For assay [10], the target named is RXFP1 E67A, full length (human).
In assay [11] the target is RXFP1 E67A^ins, full length (human).
Assay [12] has as its target RXFP1 F50A, full length (human).
In assay [13] the target is RXFP1 F50A^ins, full length (human).
The target in assay [14] is RXFP1 F54A, full length (human).
Assay [15] deals with RXFP1 F54A/Y58A, full length (human).
Assay [16] deals with RXFP1 G41A, full length (human).
Assay [17] has as its target RXFP1 G45A, full length (human).
For assay [18], the target named is RXFP1 K52A, full length (human).
In assay [19] the target is RXFP1 M60A, full length (human).
Assay [20] has as its target RXFP1 N43A, full length (human).
For assay [21], the target named is RXFP1 N43A/N44A, full length (human).
The target in assay [22] is RXFP1 N44A, full length (human).
For assay [23], the target named is RXFP1 Q49A/F50A, full length (human).
Assay [24] has as its target RXFP1 S47A/L48A, full length (human).
The target in assay [25] is RXFP1 T61A, full length (human).
The target of assay [26] is RXFP1 W46A, full length (human).
Assay [27] deals with RXFP1 Y57A, full length (human).
For assay [28], the target named is RXFP1 Y58A, full length (human).

Where no end group is shown, it is not given here. The star is where a group is joined. DTPA = O=C(O)CN(CCN(CC(=O)O)CC(=O)O)CCN(CC(=O)O)CC(=O)*

B1: Europium-labelled H2 relaxin (ligand, human)
chain 1: {DTPA}-QLYSALANKCCHVGCTKRSLARFC
chain 2: DSWMEEVIKLCGRELVRAQIAICGMSTWS
modifications: not fully specified; ends and bridges not checked; also: DTPA cage loaded with Eu^3+
notes: A chain of human gene-2 (H2) relaxin; numbers count on: the A chain; B chain of human gene-2 (H2) relaxin; numbers count on: the B chain; also called Eu-H2 relaxin; Eu-H2
A word on the Kd: it is the concentration at which binding is half-saturated. For the molecule B1, the Kd came out at 1.54 nM in [1]; 3.92 nM in [2]; 0.73 nM in [3]; 2.55 nM in [4]; 6.74 nM in assay [5]; 12.3 nM in [6].

B2: H2 relaxin (ligand, human)
chain 1: QLYSALANKCCHVGCTKRSLARFC
chain 2: DSWMEEVIKLCGRELVRAQIAICGMSTWS
B2: the H2 relaxin-induced cAMP response (pCRE β-galactosidase reporter, HEK293T), pEC50 in assay [7] was 11.4 pEC50; in assay [8], under 6 pEC50; in [9] it was 11 pEC50; in assay [10] it was 11.1 pEC50; in assay [11] it was 11.3 pEC50; in [12], 9.45 pEC50. The H2 relaxin-induced cAMP response (pCRE β-galactosidase reporter, HEK293T), pEC50 stood at 9.41 pEC50 in assay [13]; 10.2 pEC50 in assay [14]; 9.87 pEC50 in assay [15]; 11.1 pEC50 in [16]; 7.48 pEC50 in assay [17]; 11.1 pEC50 in assay [18]. The H2 relaxin-induced cAMP response (pCRE β-galactosidase reporter, HEK293T), pEC50 was 11.2 pEC50 in assay [19]; 9.06 pEC50 in assay [20]; 8.29 pEC50 in assay [21]; 11 pEC50 in assay [22]; 9.17 pEC50 in [23]; 11.1 pEC50 in [24]. The H2 relaxin-induced cAMP response (pCRE β-galactosidase reporter, HEK293T), pEC50 in [25] came out at 11.2 pEC50; in assay [26], 7.02 pEC50; in assay [27], 10.9 pEC50; in [28], 10.9 pEC50.
